Laboratory results from the supplement of paper PMC11908140.

B1: library; numbered along this chain (parent)
chain: MRKPRAAVGSGHRKQAASQEGRQKHAKNNSQAKPSACDGLARQPEEVVLQASVSSYHLFRDVAEVTAFRGSLLSWYDQEKRDLPWRRRAEDEMDLDRRAYAVWVSEVMLQQTQVATVINYYTGWMQKWPTLQDLASASLEEVNQLWAGLGYYSRGRRLQEGARKVVEELGGHMPRTAETLQQLLPGVGRYTAGAIASIAFGQATGVVDGNVARVLCRVRAIGADPSSTLVSQQLWGLAQQLVDPARPGDFNQAAMELGATVCTPQRPLCSQCPVESLCRARQRVEQEQLLASGSLSGSPDVEECAPNTGQCHLCLPPSEPWDQTLGVVNFPRKASRKPPREESSATCVLEQPGALGAQILLVQRPNSGLLAGLWEFPSVTWEPSEQLQRKALLQELQRWAGPLPATHLRHLGEVVHTFSHIKLTYQVYGLALEGQTPVTTVPPGARWLTQEEFHTAAVSTAMKKVFRVYQGQQPGTCMGSKRSQVSSPCSRKKPRMGQQVLDNFFRSHISTDAHSLNSAAQ

Variants of: B1
Test: 8OG:A repair function score (normalized; synonymous = 0, nonsense = -1) (normalized log-likelihood score); higher = more repair activity (WT-like)
Conditions: with 8OG:A DNA repair reporter (GFP) in HEK-293 MUTYH KO cells
Procedure, shortened: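 Per-tile Rosace fitness scores were converted to a normalized repair function score anchored on synonymous and nonsense distributions. That scale puts synonymous medians at 0 and nonsense medians at -1. Variants with starting counts under 300 counts per million were discarded. Input came from sorting viable mCherry+ MUTYH knockout HEK-293 cells, carrying lentiviral MUTYH cDNA NNN codon-scan libraries in 10 pg/ml doxycycline and an 8OG:A GFP repair reporter, into GFP+ and GFP− bins at 72 h, three replicates per tile, followed by tile amplicon sequencing.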
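Note: cells sorted at 72 h after reporter transfection.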

Variant	8OG:A repair function score
T179V	-0.0453
G222A	-0.213
A405D	-0.0995
T476L	-0.0267
L234C	-0.521
N329Y	-0.104
T460L	-0.235
A254K	-0.725
A431G	-0.211
A238Y	-0.881
F200L	-0.252
H420P	-0.877
Q358E	-0.0404
T176M	-0.28
R364K	-0.245
F466M	-0.0599
P273H	-0.569
V242E	-0.964
M478A	-0.0431
D249R	-0.663
E141L	-0.401
V218D	-0.983
L289M	-0.0277
T455Q	0.174

Variant	8OG:A repair function score
N143P	-0.4
T191F	-1.01
P404Q	0.15
L183Y	0.0742
R69M	-3.11
S344Y	0.0271
M478F	0.0278
L131A	-0.104
A400Y	-0.116
L396S	-0.52
L355H	-0.0638
D322I	0.0378
A147R	-0.11
R219L	-0.542
D91Y	0.00276
R81G	-0.905
G412N	-0.34
V327W	-0.425
K464Y	-0.503
L430C	-0.0232
R506Y	0.0145
F504N	0.023
P377F	-1.17
H416F	-0.448

Variant	8OG:A repair function score
A519R	0.013
R175A	-0.0909
Q132A	0.059
G479V	0.00419
V117A	0.0474
L355M	-0.0213
S490L	0.0149
Q288M	-0.03
L145K	0.0459
A177L	-0.213
Y121H	-0.853
P84L	-0.233
E350S	0.0422
L516T	0.0209
R156H	-0.0809
N307V	0.0207
P494Q	-0.000555
Q358N	-0.131
V274R	-0.994
V230I	-0.264
R482G	0.0105
V165T	-0.312
L139W	-0.0565
A147E	-0.144

Variant	8OG:A repair function score
H57R	-0.473
R81T	-0.765
D133N	0.0132
K3Y	0.137
V500I	0.0202
S226N	0.261
V485F	0.0143
Q239D	0.103
K464T	-0.351
A199W	-0.8
A36T	0.118
T436V	-0.079
A391V	0.0327
Q50V	-0.0513
R266E	-0.22
N251Y	-1.01
P383I	-0.14
Q484T	0.0125
L58Y	-0.0187
Q323C	-0.0398
E342F	-0.0595
C347I	-0.0428
V328H	-0.251
P247L	-1.02

Variant	8OG:A repair function score
G444K	-0.0942
S197F	-0.956
L403F	0.0495
Y190E	-0.808
N251L	-0.938
V465A	-0.0879
L289T	0.0028
V142E	-0.728
E167F	0.0154
R467T	-0.0575
Q50Y	-0.0626
M496T	-0.0187
V230C	-0.229
L49M	0.233
I198S	-0.757
S487H	0.00963
D300E	-0.0547
Q386R	0.0701
R467V	-0.105
Q126W	-0.256
L290T	0.0127
L315M	0.0419
R246Y	-0.517
Q232T	-0.105

Variant	8OG:A repair function score
E433N	-0.0644
S483E	-0.0311
R2V	0.0618
T380I	-0.128
V107R	-0.87
T112H	-0.634
A457Y	-0.48
Y190P	-0.905
H172N	-0.0786
V166A	-0.1
K481T	-0.0524
S55Q	0.00445
E64R	-0.103
S153L	0.0439
V104I	-0.19
S294R	-0.00624
T191G	-0.428
V362A	-0.284
Q181T	-0.0945
F59N	-0.954
Q426H	-0.0882
L448E	-0.411
S292T	-0.0314
V438I	-0.407

Variant	8OG:A repair function score
D512T	-0.0649
A99Q	-2.46
L145V	-0.0541
G39T	0.103
Q473Y	-0.023
V284F	-0.00936
A259Q	0.0355
S343L	-0.124
G258K	-1.14
Y76K	-1.41
V441K	-0.215
A162Q	-0.953
P317N	0.0467
N517Q	0.00486
S105G	-0.13
L403P	-0.0649
I359Q	-0.322
S510A	-0.00841
H454Q	-0.0422
W124D	-0.574
A245L	0.157
A371S	-0.172
G429L	-0.125
